The labels stand for the following.
B1: Integrator complex subunit 12, residues 155 to 213; numbered along this chain, Q96CB8 (parent)
chain: AMEMGLACVVCRQMMVASGNQLVECQECHNLYHRDCHKPQVTDKEANDPRLVWYCARCT

± gives the uncertainty stated by the source.

In the series the parent is B1. Nature of the series: abundance fitness (aPCA) (normalised: wild type 0, dead -1); higher = more abundant; growth selection in yeast, the domain comes from the species named. The conditions noted are these: Homo sapiens.
Consider AMEMGLACVVCRQMMVASGNQLVECQECHNLYHRDCHKPQVTDKEANDPILVWYCARCT, for which the abundance fitness is -0.242 ± 0.089.
Under AMEMGLACVVCRQMMVASGNQLVECQECHNLYHRDCHKPQVTDKEANDPHLVWYCARCT stands -0.06 ± 0.11; under AMEMGLACVVCRQMMVASGNQLVECQECHNLYHRDCHKPQVTDKEANDPLLVWYCARCT, -0.068 ± 0.045; under AMEMGLACVVCRQMMVASGNQLVECQECHNLYHRDCHKPQVTDKEANDPPLVWYCARCT, -0.033 ± 0.059.
The same measure for AMEMGLACVVCRQMMVASGNQLVECQECHNLYHRDCHKPQVTDKEANDPQLVWYCARCT: -0.059 ± 0.061; for AMEMGLACVVCRQMMVASGNQLVECQECHNLYHRDCHKPQVTDKEANDPGLVWYCARCT: 0.014 ± 0.049; for AMEMGLACVVCRQMMVASGNQLVECQECHNLYHRDCHKPQVTDKEANDPKLVWYCARCT: 0.025 ± 0.073.
Under AMEMGLACVVCRQMMVASGNQLVECQECHNLYHRDCHKPQVTDKEANDPMLVWYCARCT stands -0.028 ± 0.06; under AMEMGLACVVCRQMMVASGNQLVECQECHNLYHRDCHKPQVTDKEANDPVLVWYCARCT, -0.177 ± 0.067; under AMEMGLACVVCRQMMVASGNQLVECQECHNLYHRDCHKPQVTDKEANDPTLVWYCARCT, 0.041 ± 0.056.
Regarding AMEMGLACVVCRQMMVASGNQLVECQECHNLYHRDCHKPQVTDKEANDPNLVWYCARCT, the abundance fitness was found to be 0.15 ± 0.12.
For the variant AMEMGLACVVCRQMMVASGNQLVECQECHNLYHRDCHKPQVTDKEANDPCLVWYCARCT, the abundance fitness is -0.104 ± 0.12.
Under AMEMGLACVVCRQMMVASGNQLVECQECHNLYHRDCHKPQVTDKEANDPELVWYCARCT stands 0.02 ± 0.056; under AMEMGLACVVCRQMMVASGNQLVECQECHNLYHRDCHKPQVTDKEANDPSLVWYCARCT, 0.057 ± 0.059; under AMEMGLACVVCRQMMVASGNQLVECQECHNLYHRDCHKPQVTDKEANDPDLVWYCARCT, -0.017 ± 0.091.
Under AMEMGLACVVCRQMMVASGNQLVECQECHNLYHRDCHKPQVTDKEANDPALVWYCARCT stands 0.014 ± 0.048; under AMEMGLACVVCRQMMVASGNQLVECQECHNLYHRDCHKPQVTDKEANDTRLVWYCARCT, 0.023 ± 0.073.
Under AMEMGLACVVCRQMMVASGNQLVECQECHNLYHRDCHKPQVTDKEANDIRLVWYCARCT stands 0.002 ± 0.14; under AMEMGLACVVCRQMMVASGNQLVECQECHNLYHRDCHKPQVTDKEANDYRLVWYCARCT, -0.258 ± 0.1; under AMEMGLACVVCRQMMVASGNQLVECQECHNLYHRDCHKPQVTDKEANDGRLVWYCARCT, 0.062 ± 0.044.
AMEMGLACVVCRQMMVASGNQLVECQECHNLYHRDCHKPQVTDKEANDKRLVWYCARCT: the abundance fitness is 0.001 ± 0.072.
The same measure for AMEMGLACVVCRQMMVASGNQLVECQECHNLYHRDCHKPQVTDKEANDSRLVWYCARCT: -0.007 ± 0.053; for AMEMGLACVVCRQMMVASGNQLVECQECHNLYHRDCHKPQVTDKEANDRRLVWYCARCT: -0.022 ± 0.041; for AMEMGLACVVCRQMMVASGNQLVECQECHNLYHRDCHKPQVTDKEANDVRLVWYCARCT: -0.082 ± 0.044.
Under AMEMGLACVVCRQMMVASGNQLVECQECHNLYHRDCHKPQVTDKEANDMRLVWYCARCT stands -0.06 ± 0.069; under AMEMGLACVVCRQMMVASGNQLVECQECHNLYHRDCHKPQVTDKEANDLRLVWYCARCT, -0.101 ± 0.048; under AMEMGLACVVCRQMMVASGNQLVECQECHNLYHRDCHKPQVTDKEANDHRLVWYCARCT, -0.132 ± 0.17.
In the case of AMEMGLACVVCRQMMVASGNQLVECQECHNLYHRDCHKPQVTDKEANDNRLVWYCARCT, the abundance fitness was -0.17 ± 0.12.
The same measure for AMEMGLACVVCRQMMVASGNQLVECQECHNLYHRDCHKPQVTDKEANDPRNVWYCARCT: -0.197 ± 0.077.
As to AMEMGLACVVCRQMMVASGNQLVECQECHNLYHRDCHKPQVTDKEANDPRQVWYCARCT, the abundance fitness turned out to be 0.02 ± 0.055.
The same measure for AMEMGLACVVCRQMMVASGNQLVECQECHNLYHRDCHKPQVTDKEANDPRRVWYCARCT: 0.062 ± 0.04; for AMEMGLACVVCRQMMVASGNQLVECQECHNLYHRDCHKPQVTDKEANDPRIVWYCARCT: -0.282 ± 0.08.
Under AMEMGLACVVCRQMMVASGNQLVECQECHNLYHRDCHKPQVTDKEANDPRSVWYCARCT stands 0.049 ± 0.051; under AMEMGLACVVCRQMMVASGNQLVECQECHNLYHRDCHKPQVTDKEANDPRYVWYCARCT, -0.169 ± 0.071.
The same measure for AMEMGLACVVCRQMMVASGNQLVECQECHNLYHRDCHKPQVTDKEANDPRKVWYCARCT: 0.089 ± 0.063; for AMEMGLACVVCRQMMVASGNQLVECQECHNLYHRDCHKPQVTDKEANDPRGVWYCARCT: 0.069 ± 0.046.
Regarding AMEMGLACVVCRQMMVASGNQLVECQECHNLYHRDCHKPQVTDKEANDPRTVWYCARCT, the abundance fitness amounted to 0.037 ± 0.07.
Turning to AMEMGLACVVCRQMMVASGNQLVECQECHNLYHRDCHKPQVTDKEANDPREVWYCARCT, the abundance fitness came to 0.056 ± 0.06.
Under AMEMGLACVVCRQMMVASGNQLVECQECHNLYHRDCHKPQVTDKEANDPRFVWYCARCT stands -0.048 ± 0.081.
With AMEMGLACVVCRQMMVASGNQLVECQECHNLYHRDCHKPQVTDKEANDPRDVWYCARCT, the abundance fitness was 0.013 ± 0.066.
AMEMGLACVVCRQMMVASGNQLVECQECHNLYHRDCHKPQVTDKEANDPRHVWYCARCT: the abundance fitness amounted to 0.063 ± 0.11.
The same measure for AMEMGLACVVCRQMMVASGNQLVECQECHNLYHRDCHKPQVTDKEANDPRWVWYCARCT: -0.108 ± 0.059; for AMEMGLACVVCRQMMVASGNQLVECQECHNLYHRDCHKPQVTDKEANDPRPVWYCARCT: 0.035 ± 0.06; for AMEMGLACVVCRQMMVASGNQLVECQECHNLYHRDCHKPQVTDKEANDPRVVWYCARCT: -0.003 ± 0.052.
Under AMEMGLACVVCRQMMVASGNQLVECQECHNLYHRDCHKPQVTDKEANDPRAVWYCARCT stands 0.042 ± 0.054.

For the origin of these results see the Human Domainome abundance scans (Beltran et al. 2025).
